Measurements reported in IntAct's records for PubMed 27135603.

B1: TNF receptor-associated factor 2 (Homo sapiens), Q12933 (parent)
chain: MAAASVTPPGSLELLQPGFSKTLLGTKLEAKYLCSACRNVLRRPFQAQCGHRYCSFCLASILSSGPQNCAACVHEGIYEEGISILESSSAFPDNAARREVESLPAVCPSDGCTWKGTLKEYESCHEGRCPLMLTECPACKGLVRLGEKERHLEHECPERSLSCRHCRAPCCGADVKAHHEVCPKFPLTCDGCGKKKIPREKFQDHVKTCGKCRVPCRFHAIGCLETVEGEKQQEHEVQWLREHLAMLLSSVLEAKPLLGDQSHAGSELLQRCESLEKKTATFENIVCVLNREVERVAMTAEACSRQHRLDQDKIEALSSKVQQLERSIGLKDLAMADLEQKVLEMEASTYDGVFIWKISDFARKRQEAVAGRIPAIFSPAFYTSRYGYKMCLRIYLNGDGTGRGTHLSLFFVVMKGPNDALLRWPFNQKVTLMLLDQNNREHVIDAFRPDVTSSSFQRPVNDMNIASGCPLFCPVSKMEAKNSYVRDDAIFIKAIVDLTGL
partner: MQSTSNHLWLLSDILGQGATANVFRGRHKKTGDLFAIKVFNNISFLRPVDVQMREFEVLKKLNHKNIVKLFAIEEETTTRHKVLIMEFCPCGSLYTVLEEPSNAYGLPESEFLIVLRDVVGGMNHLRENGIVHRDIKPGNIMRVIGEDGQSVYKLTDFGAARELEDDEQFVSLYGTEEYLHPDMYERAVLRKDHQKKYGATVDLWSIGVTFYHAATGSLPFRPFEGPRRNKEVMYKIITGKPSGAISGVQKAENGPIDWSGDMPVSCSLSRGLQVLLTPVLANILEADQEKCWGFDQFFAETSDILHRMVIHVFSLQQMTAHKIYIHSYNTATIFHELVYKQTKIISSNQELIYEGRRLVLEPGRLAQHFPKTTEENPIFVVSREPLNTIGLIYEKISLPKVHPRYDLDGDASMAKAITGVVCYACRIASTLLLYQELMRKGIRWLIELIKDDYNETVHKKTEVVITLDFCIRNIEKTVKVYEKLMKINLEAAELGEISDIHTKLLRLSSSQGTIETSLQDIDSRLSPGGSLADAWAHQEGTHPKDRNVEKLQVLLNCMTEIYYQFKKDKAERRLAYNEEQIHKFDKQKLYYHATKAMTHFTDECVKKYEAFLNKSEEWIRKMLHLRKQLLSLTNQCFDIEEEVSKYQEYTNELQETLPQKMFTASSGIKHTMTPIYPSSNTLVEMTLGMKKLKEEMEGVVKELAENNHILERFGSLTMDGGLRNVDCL
B2: TNF receptor-associated factor 3 (Homo sapiens), Q13114 (parent)
chain: MESSKKMDSPGALQTNPPLKLHTDRSAGTPVFVPEQGGYKEKFVKTVEDKYKCEKCHLVLCSPKQTECGHRFCESCMAALLSSSSPKCTACQESIVKDKVFKDNCCKREILALQIYCRNESRGCAEQLMLGHLLVHLKNDCHFEELPCVRPDCKEKVLRKDLRDHVEKACKYREATCSHCKSQVPMIALQKHEDTDCPCVVVSCPHKCSVQTLLRSELSAHLSECVNAPSTCSFKRYGCVFQGTNQQIKAHEASSAVQHVNLLKEWSNSLEKKVSLLQNESVEKNKSIQSLHNQICSFEIEIERQKEMLRNNESKILHLQRVIDSQAEKLKELDKEIRPFRQNWEEADSMKSSVESLQNRVTELESVDKSAGQVARNTGLLESQLSRHDQMLSVHDIRLADMDLRFQVLETASYNGVLIWKIRDYKRRKQEAVMGKTLSLYSQPFYTGYFGYKMCARVYLNGDGMGKGTHLSLFFVIMRGEYDALLPWPFKQKVTLMLMDQGSSRRHLGDAFKPDPNSSSFKKPTGEMNIASGCPVFVAQTVLENGTYIKDDTIFIKVIVDTSDLPDP
partner: B1 partner
B3: Inducible T-cell costimulator (Homo sapiens), Q9Y6W8 (parent)
chain: MKSGLWYFFLFCLRIKVLTGEINGSANYEMFIFHNGGVQILCKYPDIVQQFKMQLLKGGQILCDLTKTKGSGNTVSIKSLKFCHSQLSNNSVSFFLYNLDHSHANYYFCNLSIFDPPPFKVTLTGGYLHIYESQLCCQLKFWLPIGCAAFVVVCILGCILICWLTKKKYSSSVHDPNGEYMFMRAVNTAKKSRLTDVTL
partner: B1 partner
B4: Inducible T-cell costimulator (Homo sapiens), Q9Y6W8 (parent)
chain: B3 chain

Variants of: B1
Conditions: with tbk1_human TBK1, Q9UHD2

**Q.** With MAAASVTPPGSLELLQPGFSKTLLGTKLEAKYLCSACRNVLRRPFQAQCGHRYCSFCLASILSSGPQNCAACVHEGIYEEGISILESSSAFPDNAARREVESLPAVCPSDGCTWKGTLKEYESCHEGRCPLMLTECPACKGLVRLGEKERHLEHECPERSLSCRHCRAPCCGADVKAHHEVCPKFPLTCDGCGKKKIPREKFQDHVKTCGKCRVPCRFHAIGCLETVEGEKQQEHEVQWLREHLAMLLSSVLEAKPLLGDQSHAGSELLQRCESLEKKTATFENIVCVLNREVERVAMTAEACSRQHRLDQDKIEALSSKVQQLERSIGLKDLAMADLEQKVLEMEASTYDGVFIWKISDFARKRQEAVAGRIPAIFSPAFYTSRYGYKMCLRIYLNGDGTGRGTHLSLFFVVMKGPNDALLRWPFNQKVTLMLLDQNNREHVIDAFRPDVTAAAAAAAAAAMNIASGCPLFCPVSKMEAKNSYVRDDAIFIKAIVDLTGL [S453A;S454A;S455A;F456A;Q457A;R458A;P459A;V460A;N461A;D462A] as the variant, how does the “effect of a mutation on the interaction” value read?
**A.** The value was “disrupting interaction strength”.

Variants of: B2
Conditions: with tbk1_human TBK1, Q9UHD2

**Q.** How did the “effect of a mutation on the interaction” value turn out when MESSKKMDSPGALQTNPPLKLHTDRSAGTPVFVPEQGGYKEKFVKTVEDKYKCEKCHLVLCSPKQTECGHRFCESCMAALLSSSSPKCTACQESIVKDKVFKDNCCKREILALQIYCRNESRGCAEQLMLGHLLVHLKNDCHFEELPCVRPDCKEKVLRKDLRDHVEKACKYREATCSHCKSQVPMIALQKHEDTDCPCVVVSCPHKCSVQTLLRSELSAHLSECVNAPSTCSFKRYGCVFQGTNQQIKAHEASSAVQHVNLLKEWSNSLEKKVSLLQNESVEKNKSIQSLHNQICSFEIEIERQKEMLRNNESKILHLQRVIDSQAEKLKELDKEIRPFRQNWEEADSMKSSVESLQNRVTELESVDKSAGQVARNTGLLESQLSRHDQMLSVHDIRLADMDLRFQVLETASYNGVLIWKIRDYKRRKQEAVMGKTLSLYSQPFYTGYFGYKMCARVYLNGDGMGKGTHLSLFFVIMRGEYDALLPWPFKQKVTLMLMDQGSSRRHLGDAFKPDPNAAAAAAAAAAMNIASGCPVFVAQTVLENGTYIKDDTIFIKVIVDTSDLPDP [S518A;S519A;S520A;F521A;K522A;K523A;P524A;T525A;G526A;E527A] was run?
**A.** Its value is “decreasing interaction strength”.

Variants of: B3
Conditions: with tbk1_human TBK1, Q9UHD2

**Q.** How did the “effect of a mutation on the interaction” value turn out when MKSGLWYFFLFCLRIKVLTGEINGSANYEMFIFHNGGVQILCKYPDIVQQFKMQLLKGGQILCDLTKTKGSGNTVSIKSLKFCHSQLSNNSVSFFLYNLDHSHANYYFCNLSIFDPPPFKVTLTGGYLHIYESQLCCQLKFWLPIGCAAFVVVCILGCILICWLTKKKYSSSVHDPNGEFMFMRAVNTAKKSRLTDVTL was run?
**A.** The value was “with no effect”.

Variants of: B3
Conditions: with tbk1_human TBK1, Q9UHD2
Remark: another data set of the same source

**Q.** MKSGLWYFFLFCLRIKVLTGEINGSANYEMFIFHNGGVQILCKYPDIVQQFKMQLLKGGQILCDLTKTKGSGNTVSIKSLKFCHSQLSNNSVSFFLYNLDHSHANYYFCNLSIFDPPPFKVTLTGGYLHIYESQLCCQLKFWLPIGCAAFVVVCILGCILICWLTKKKYAAAAAAAAAAYMFMRAVNTAKKSRLTDVTL was tested. Which “effect of a mutation on the interaction” value did it give?
**A.** Its value is “decreasing interaction strength”.

Variants of: B4
Conditions: with p85a_human PIK3R1, P27986
Chain of p85a_human PIK3R1, P27986 (P27986 whole entry): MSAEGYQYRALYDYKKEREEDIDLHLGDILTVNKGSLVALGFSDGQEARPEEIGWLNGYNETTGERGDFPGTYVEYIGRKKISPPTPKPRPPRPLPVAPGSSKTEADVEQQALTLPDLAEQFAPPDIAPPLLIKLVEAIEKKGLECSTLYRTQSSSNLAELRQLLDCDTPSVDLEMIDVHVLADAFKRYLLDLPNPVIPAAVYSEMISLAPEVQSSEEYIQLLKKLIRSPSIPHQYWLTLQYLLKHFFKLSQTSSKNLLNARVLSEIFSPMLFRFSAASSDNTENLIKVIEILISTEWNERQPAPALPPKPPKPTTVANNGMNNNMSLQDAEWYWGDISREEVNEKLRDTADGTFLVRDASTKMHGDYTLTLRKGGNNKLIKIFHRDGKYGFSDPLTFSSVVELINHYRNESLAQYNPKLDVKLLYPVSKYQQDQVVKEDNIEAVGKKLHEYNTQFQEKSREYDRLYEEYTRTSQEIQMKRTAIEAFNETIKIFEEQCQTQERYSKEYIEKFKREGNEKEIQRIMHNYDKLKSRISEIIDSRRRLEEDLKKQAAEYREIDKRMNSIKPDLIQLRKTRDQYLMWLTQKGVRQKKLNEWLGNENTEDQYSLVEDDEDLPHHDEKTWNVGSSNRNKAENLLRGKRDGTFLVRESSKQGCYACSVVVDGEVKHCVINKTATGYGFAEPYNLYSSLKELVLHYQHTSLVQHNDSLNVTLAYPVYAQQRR

**Q.** MKSGLWYFFLFCLRIKVLTGEINGSANYEMFIFHNGGVQILCKYPDIVQQFKMQLLKGGQILCDLTKTKGSGNTVSIKSLKFCHSQLSNNSVSFFLYNLDHSHANYYFCNLSIFDPPPFKVTLTGGYLHIYESQLCCQLKFWLPIGCAAFVVVCILGCILICWLTKKKYAAAAAAAAAAYMFMRAVNTAKKSRLTDVTL was tested. Which “effect of a mutation on the interaction” value did it give?
**A.** The value was “with no effect”.

Variants of: B4
Conditions: with p85a_human PIK3R1, P27986
Remark: another data set of the same source

**Q.** Which “effect of a mutation on the interaction” value does the source give for MKSGLWYFFLFCLRIKVLTGEINGSANYEMFIFHNGGVQILCKYPDIVQQFKMQLLKGGQILCDLTKTKGSGNTVSIKSLKFCHSQLSNNSVSFFLYNLDHSHANYYFCNLSIFDPPPFKVTLTGGYLHIYESQLCCQLKFWLPIGCAAFVVVCILGCILICWLTKKKYSSSVHDPNGEFMFMRAVNTAKKSRLTDVTL here?
**A.** Its value is “disrupting interaction strength”.
